No end group written: not given here.
What follows are molecules tested against T1, PTH receptor (Mus musculus, UniProt P41593) (assay: cAMP production by PTH (1-34) analogues in MC3T3-EI osteoblast-like cells). Conditions: cAMP production, 0.01-100 nM analogue, room temperature 30 minutes, hPTH(1-34) = 1.00.
T1 construct: a mouse cranial bone-derived osteoblast-like cell strain, MC3T3-EI cells, cultivated on a 96-well multiplate; endogenous in cells; host or cells: MC3T3-E1 mouse osteoblast-like cells
T1 sequence (P41593 27-591): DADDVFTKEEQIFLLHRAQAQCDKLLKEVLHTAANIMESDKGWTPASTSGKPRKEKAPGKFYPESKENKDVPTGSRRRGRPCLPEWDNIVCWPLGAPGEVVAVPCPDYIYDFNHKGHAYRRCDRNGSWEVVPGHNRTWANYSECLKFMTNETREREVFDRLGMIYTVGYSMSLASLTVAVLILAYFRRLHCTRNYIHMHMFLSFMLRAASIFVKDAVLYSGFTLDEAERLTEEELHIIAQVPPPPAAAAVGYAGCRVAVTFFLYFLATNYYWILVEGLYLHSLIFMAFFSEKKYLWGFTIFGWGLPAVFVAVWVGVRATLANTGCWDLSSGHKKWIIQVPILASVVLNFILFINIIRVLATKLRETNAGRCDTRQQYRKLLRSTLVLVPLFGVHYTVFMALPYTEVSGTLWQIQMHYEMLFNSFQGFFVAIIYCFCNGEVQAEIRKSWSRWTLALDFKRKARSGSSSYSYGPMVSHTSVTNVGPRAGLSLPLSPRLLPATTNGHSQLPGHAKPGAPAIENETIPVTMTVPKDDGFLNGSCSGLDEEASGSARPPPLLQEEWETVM
Assay type: cell-based
Experimental: The biological activity of the peptide analogues was evaluated by a modified version of the method reported by Shigeno et al. in The Journal of Biological Chemistry 263, 18369-18377 (1988). A culture solution (Hank's solution, containing 20 mM N-2-hydroxyethylpiperazine-N'-2-ethanesulfonic acid (HEPES), 0.1% bovine serum albumin and 0.5 mM isobutylmethyl-xanthine) containing 0.01, 0.1, 1, 10 or 100 nM analogue was added in an amount of 100 μto a mouse cranial bone-derived osteoblast-like cell strain, MC3T3-EI cells, cultivated on a 96-well multiplate (Nunclon, Nunc), followed by reaction at room temperature for 30 minutes. After addition of 100 μof 0.2N hydrochloric acid, the mixture was immersed in boiling water for 2.5 minutes, and cyclic adenosine monophosphate (cAMP) produced by a PTH receptor was extracted from the cells. The total cAMP in the culture solution and the cells was assayed using a commercial radioimmunoassay kit (cyclic AMP [^125 I] kit "Du Pont-Daiichi", Daiichi Kagaku Yakuhin).

| Molecule | Biological Activity (Represented by Relative Activity to hPTH(1-34)) |
| --- | --- |
| SVSEIQLLHNFGKHLNSLERVEWLRKKLQDVHNF-NH2 [[Leu^8, Phe^11, Leu^18] hPTH (1-34)NH2, (Leu^8, Phe^11,Leu^18)hPTH(1-34)NH2] | 0.9 |
| CC[C@H](C)[C@H](NC(=O)[C@H](CCC(=O)O)NC(=O)[C@H](CO)NC(=O)[C@@H](NC(=O)[C@@H](N)CO)C(C)C)C(=O)N[C@@H](CCC(N)=O)C(=O)N[C@@H](CC(C)C)C(=O)N[C@@H](CCSC)C(=O)N[C@@H](Cc1c[nH]cn1)C(=O)N[C@@H](CC(N)=O)C(=O)N[C@@H](CC(C)C)C(=O)NCC(=O)N[C@@H](CCCCN)C(=O)N[C@@H](Cc1c[nH]cn1)C(=O)N[C@@H](CC(C)C)C(=O)N[C@@H](CC(N)=O)C(=O)N[C@@H](CO)C(=O)N[C@@H](CCSC)C(=O)N[C@@H](CCC(=O)O)C(=O)N[C@@H](CCCNC(=N)N)C(=O)N[C@H](C(=O)N[C@@H](CCC(=O)O)C(=O)N[C@@H](Cc1c[nH]c2ccccc12)C(=O)N[C@@H](CC(C)C)C(=O)N[C@@H](Cc1c[nH]cn1)C(=O)N[C@@H](CCCCN)C(=O)N[C@@H](CCCCN)C(=O)N[C@@H](CC(C)C)C(=O)N[C@@H](CCC(N)=O)C(=O)N[C@@H](CC(=O)O)C(=O)N[C@H](C(=O)N[C@@H](Cc1c[nH]cn1)C(=O)N[C@@H](CC(N)=O)C(=O)N[C@@H](Cc1ccccc1)C(=O)O)C(C)C)C(C)C [[His^25] hPTH (1-34), (His^25)hPTH(1-34)] | 1.0 |
| CC[C@H](C)[C@H](NC(=O)[C@H](CCC(=O)O)NC(=O)[C@H](CO)NC(=O)[C@@H](NC(=O)C(C)(C)N)C(C)C)C(=O)N[C@@H](CCC(N)=O)C(=O)N[C@@H](CC(C)C)C(=O)N[C@@H](CCSC)C(=O)N[C@@H](Cc1c[nH]cn1)C(=O)N[C@@H](CC(N)=O)C(=O)N[C@@H](CC(C)C)C(=O)NCC(=O)N[C@@H](CCCCN)C(=O)N[C@@H](Cc1c[nH]cn1)C(=O)N[C@@H](CC(C)C)C(=O)N[C@@H](CC(N)=O)C(=O)N[C@@H](CO)C(=O)N[C@@H](CCSC)C(=O)N[C@@H](CCC(=O)O)C(=O)N[C@@H](CCCNC(=N)N)C(=O)N[C@H](C(=O)N[C@@H](CCC(=O)O)C(=O)N[C@@H](Cc1c[nH]c2ccccc12)C(=O)N[C@@H](CC(C)C)C(=O)N[C@@H](CCCNC(=N)N)C(=O)N[C@@H](CCCCN)C(=O)N[C@@H](CCCCN)C(=O)N[C@@H](CC(C)C)C(=O)N[C@@H](CCC(N)=O)C(=O)N[C@@H](CC(=O)O)C(=O)N[C@H](C(=O)N[C@@H](Cc1c[nH]cn1)C(=O)N[C@@H](CC(N)=O)C(=O)N[C@@H](Cc1ccccc1)C(=O)O)C(C)C)C(C)C [[Aib^1] hPTH (1-34), (Aib^1)hPTH(1-34)] | 1.7 |
| (Arg^19,21)hPTH(1-34)NH2 [[Arg^13, 21] hPTH (1-34)NH2] | 0.9 |
| CC[C@H](C)[C@H](NC(=O)[C@H](CCC(=O)O)NC(=O)[C@H](CO)NC(=O)[C@@H](NC(=O)[C@@H](N)CO)C(C)C)C(=O)N[C@@H](CCC(N)=O)C(=O)N[C@@H](CC(C)C)C(=O)N[C@@H](CCSC)C(=O)N[C@@H](Cc1c[nH]cn1)C(=O)N[C@@H](CC(N)=O)C(=O)N[C@@H](CC(C)C)C(=O)NCC(=O)N[C@@H](CCCCN)C(=O)N[C@@H](Cc1c[nH]cn1)C(=O)N[C@@H](CC(C)C)C(=O)N[C@@H](CC(N)=O)C(=O)N[C@@H](CO)C(=O)N[C@@H](CCSC)C(=O)N[C@@H](CCC(=O)O)C(=O)N[C@@H](CCCNC(=N)N)C(=O)N[C@H](C(=O)N[C@@H](CCC(=O)O)C(=O)N[C@@H](Cc1c[nH]c2ccccc12)C(=O)N[C@@H](CC(C)C)C(=O)N[C@@H](CCCNC(=N)N)C(=O)N[C@@H](Cc1c[nH]cn1)C(=O)N[C@@H](CCCCN)C(=O)N[C@@H](CC(C)C)C(=O)N[C@@H](CCC(N)=O)C(=O)N[C@@H](CC(=O)O)C(=O)N[C@H](C(=O)N[C@@H](Cc1c[nH]cn1)C(=O)N[C@@H](CC(N)=O)C(=O)N[C@@H](Cc1ccccc1)C(N)=O)C(C)C)C(C)C [[His^26] hPTH (1-34)NH2, (His^26)hPTH(1-34(NH2] | 0.9 |

These molecules were tested against PTH receptor on MC3T3-EI cells (mouse cranial bone-derived osteoblast-like cell strain) (mouse) (UniProt P41593) (assay: not given). Conditions: not given.

| Molecule | cAMP production in MC3T3-EI cells, relative activity to hPTH(1-34) (relative activity to hPTH(1-34)) |
| --- | --- |
| (Ser^11)hPTH(1-34)NH2 (from UniProt P01270) (peptide) | 0.8 |
| (His^26)hPTH(1-34)NH2 (from UniProt P01270) (peptide) | 0.9 |
| (Leu^18)hPTH(1-34) (from UniProt P01270) (peptide) | 0.4 |
| (Leu^8)hPTH(1-34)NH2 (from UniProt P01270) (peptide) | 0.5 |
| (D-Ser^12)hPTH(1-34)NH2 (from UniProt P01270) (peptide) | 0.8 |
| (Aib^1)hPTH(1-34) (from UniProt P01270) (peptide) | 1.7 |
| (Arg^19,21)hPTH(1-34)NH2 (from UniProt P01270) (peptide) | 0.9 |
| (Phe^11)hPTH(1-34)NH2 (from UniProt P01270) (peptide) | 1.3 |
| (Phe^11)hPTH(1-34) (from UniProt P01270) (peptide) | 1.1 |
| (3-(2-naphthyl)-Ala^11)hPTH(1-34)NH2 (from UniProt P01270) (peptide) | 1.7 |
| (3-(2-naphthyl)-D-Ala^12)hPTH(1-34)NH2 (from UniProt P01270) (peptide) | 0.9 |

Other lines, results leading:

| cAMP production in MC3T3-EI cells, relative activity to hPTH(1-34) (relative activity to hPTH(1-34)) | Molecule |
| --- | --- |
| 1.1 | (Lys^11)hPTH(1-34)NH2 (from UniProt P01270) (peptide) |
| 1 | (His^25)hPTH(1-34) (from UniProt P01270) (peptide) |
| 2.5 | (Gln^27)hPTH(1-34) (from UniProt P01270) (peptide) |
| 1.7 | (Arg^19,21,2-(1,3-dithiolan-2-yl)-Trp^23)hPTH(1-34)NH2 (from UniProt P01270) (peptide) |
| 1.2 | (Leu^27)hPTH(1-34) (from UniProt P01270) (peptide) |
| 0.5 | (D-Leu^12)hPTH(1-34)NH2 (from UniProt P01270) (peptide) |
| 0.9 | (Leu^8, Phe^11,Leu^18)hPTH(1-34)NH2 (from UniProt P01270) (peptide) |

Source: patent US5393869A, “Parathyroid hormone derivatives” (Takeda Chemical Industries, Ltd., priority 1990, dated 1995)
